Where two headings read alike, the source gives them in different places.
What was measured:
Fl-Imp3p;Rh-Imp4p = biological target: T1, Fl-Imp3p;Rh-Imp4p (Saccharomyces cerevisiae;Saccharomyces …, UniProt P32899;P53941 1-183;1-290, |); assay: ssFRET
T1 sequence 1: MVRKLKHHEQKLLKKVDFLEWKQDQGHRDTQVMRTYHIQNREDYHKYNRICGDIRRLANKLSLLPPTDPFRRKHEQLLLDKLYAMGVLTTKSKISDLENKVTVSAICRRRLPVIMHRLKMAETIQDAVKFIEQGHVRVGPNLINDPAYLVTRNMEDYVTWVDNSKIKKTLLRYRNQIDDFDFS
T1 sequence 2: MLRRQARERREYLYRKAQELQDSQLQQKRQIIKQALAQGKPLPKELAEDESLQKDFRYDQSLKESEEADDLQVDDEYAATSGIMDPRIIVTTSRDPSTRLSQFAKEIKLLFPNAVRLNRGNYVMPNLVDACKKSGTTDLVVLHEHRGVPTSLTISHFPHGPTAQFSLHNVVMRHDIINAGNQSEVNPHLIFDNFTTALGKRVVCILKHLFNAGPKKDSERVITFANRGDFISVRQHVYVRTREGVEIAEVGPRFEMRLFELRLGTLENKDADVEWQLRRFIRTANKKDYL

Imp3p;Imp4p [1] = biological target: T2, Imp3p;Imp4p (Saccharomyces cerevisiae;Saccharomyces …, UniProt P32899;P53941 1-183;1-290, |); assay: trFRET
T2 sequence 1: T1 sequence 1
T2 sequence 2: T1 sequence 2

Imp3p = biological target: T3, Imp3p (Saccharomyces cerevisiae, UniProt P32899 1-183); assay: trFRET
T3 sequence: T1 sequence 1

Imp3p;Imp4p [2] = biological target: T2, Imp3p;Imp4p; assay: trFRET; remark: listed apart in the source

GGACGUACUUCAUAGGAUCAUUUCUAUAGGAAUCGUCACUCUUUGACU (structured_RNA) [U3 MINI]
binding result (Fl-Imp3p;Rh-Imp4p): binds

GGACGUACUUCAUAGGAUCAUUUCUAUAGGAAUCGUCACUCUUUGACU (structured_RNA) [Fl-U3 MINI-Rh]
binding result (Imp3p;Imp4p [1]): binds | binding result (Imp3p): binds

B1: Fl-U3 MINI-Rh with 18S (dsRNA)
RNA 1: GGACGUACUUCAUAGGAUCAUUUCUAUAGGAAUCGUCACUCUUUGACU
RNA 2: GGUUGAUCCUGCCAGUA
binding result (Imp3p;Imp4p [2]): binds
